Where two headings read alike, the source gives them in different places. Numbered stars: 1 amine (or outer) side, 2 acyl side, 3 side chain; on linkers, the order of the positions; unused ones are H or OH. Square brackets hold non-standard residues; d marks the D form. Dhp = Dehydrophenylalanine, O=C(/C(=C/c1ccccc1)N[*:1])[*:2]; Phe(ol) = N[C@H](CO)Cc1ccccc1; dPse = not defined here; Abu = CC[C@H](N)C(=O)O; Pse = Phenylserine
Experiments:
CDK4/Cyclin D1 = biological target: T1, CDK4/Cyclin D1 (Homo sapiens, UniProt P24385); experiment: CDK4/Cyclin D1 kinase assay, phosphorylation of GST-Rb; format: biochemical
T1 construct: made in house; host or cells: CDK4: Sf9 insect cells (baculovirus)
Protocol: (§1) The phosphorylation reaction mixture (total volume 40 μl) consisted of 50 mM HEPES pH 7.4, 20 mM MgCl2, 5 mM EGTA, 2 mM DTT, 20 mM β-glycerophosphate, 2 mM NaF, 1 mM Na3VO4, Protease Inhibitors Cocktail (Sigma, see above), BSA 0.5 mg/ml, 1 μg purified enzyme complex, 10 μl of GST-Rb-Sepharose beads, 100 μM ATP, 0.2 μCi ^32P-ATP. The reaction was carried out for 30 min at 30° C. at constant shaking. At the end of this period 100 μl of 50 mM HEPES, pH 7.4 and 1 mM ATP were added to each well and the total volume was transferred onto GFC filtered plate. The plate was washed 5 times with 200 μl of 50 mM HEPES, pH 7.4 and 1 mM ATP. To each well were added 50 μl scintillant liquid and the radioactivity of the samples was measured on Scintilation counter (Topcount, HP). The IC50 values of different peptides were calculated using GraFit software.
Peptides were synthesized as described above. Cyclin D1 was expressed in E coli BL21(DE3) using PET expression vector and purified from the inclusion bodies. After refolding Cyclin D1 was cross-linked on SulfoLink agarose support (PIERCE). CDK4-6×His was expressed in Sf9 insect cells infected with the appropriate baculovirus construct and purified by metal-affinity chromatography (Quiagen). […] CDK4/Cyclin D1 phosphorilation of Rb was determined by incorporation of radio-labeled phosphate in GST-Rb in 96-well format kinase assay. […] The reaction was carried out for 30 min at 30 C at constant shaking. The GST-Rb-Sepharose beads were washed with 50 mM HEPES and 1 mM ATP and the radioactivity was measured on Scintillation counter (Topcount, HP)

CDK2/Cyclin E = biological target: T2, CDK2/Cyclin E (Homo sapiens, UniProt P24864); experiment: CDK2/Cyclin E kinase assay, phosphorylation of GST-Rb; format: biochemical; settings: for Kinase Inhibition Cyclin E/CDK2 % Inhibition / Kinase Inhibition Cyclin E/CDK2 IC30: GST-pRb substrate, [ATP] = 100 μM
T2 construct: 6xHis; made in house; host or cells: Sf9 insect cells (baculovirus co-expression)
Protocol: as §1

CDK2/cyclin A = CDK2/cyclin A (Homo sapiens, UniProt P20248); experiment: CDK2/cyclin A kinase assay, substrate pRb(773-928); format: biochemical; settings: for Relative activity Kinase Inhibition: pRb substrate, [ATP] = 100 μM
Text: Reactions were stopped on ice, followed by filtration through p81 filterplates (Whatman Polyfiltronics, Kent, UK).

Cyclin A = Cyclin A (Homo sapiens, UniProt P20248); experiment: Cyclin A binding assay, immobilised biotinyl-Ahx-[…]NH2; settings: for Cyclin A Binding Maximum Inhibition: at 100 μM, no IC50 given
Protocol: This was added to each well (100 μL). The plate was incubated for 1 h at room temperature with constant shaking. The plate was washed once quickly with TBS/BSA buffer (200 μL), followed by three more washes with TBS/BSA buffer (200 μL) for 5 min each. Serial dilutions of test peptides were prepared in a new plate (50 μL in each well). Cyclin A was diluted to 5 μg/50 μL with TBS/BSA buffer and this was then added to each well (50 μL). The solutions were mixed thoroughly with a pipette (5-6 times), before being incubated for 30 min at room temperature. This reaction mixture was then transferred to the biotinylated peptide: streptavidin-coated plate and incubated for 1 h at room temperature with constant shaking. The plate was washed once quickly with TBS/BSA buffer (200 μL), followed by three more washes with TBS/BSA buffer (200 μL) for 5 min each. The cyclin A antibody (Santa Cruz polyclonal) solution was diluted 1:200 with TBS/BSA buffer and this was then added to each well of the plate (100 μL. The plate was incubated for 1 h at room temperature with constant shaking. The plate was washed once quickly with TBS/BSA buffer (200 μl), followed by three more washes with TBS/BSA buffer (200 μL) for 5 min each. The anti-rabbit secondary antibody (goat anti-rabbit IgG peroxidase conjugate) was diluted 1:10,000 with TBS/BSA and this was then added to each well of the plate (100 μL). The plate was incubated for 1 h at room temperature with constant shaking. The plate was washed once quickly with TBS/BSA buffer (200 μL), followed by three more washes with TBS/BSA buffer (200 μL) for 5 min each. To each well was added the TMB-ELISA reagent (Pierce 1-Step™ Turbo TMB-ELISA; 100 μL) and the plate incubated for 1 min with constant shaking. The reaction was then quenched by the addition of 2 M aqueous H2SO4 (100 μL, each well). The UV absorbance of the each solution was measured spectrophotometrically at 450 nm. IC50 values were calculated from dose-response curves.

[1] = GST-pRb substrate, [ATP] = 100 μM
[2] = relative to H-His-Ala-Lys-Arg-Arg-Leu-Ile-Phe-NH2 (SEQ ID No. 36) = 1, CDK2/cyclin A kinase assay
[3] = relative to SEQ ID No. 36 = 1, competitive cyclin A binding, immobilised biotinyl-Ahx-His-Ala-Lys-Arg-Arg-Leu-Ile-Phe-NH2
[4] = His152 substitutions, relative to H-His-Ala-Lys-Arg-Arg-Leu-Ile-Phe-NH2 (=1)
[5] = Leu157 substitutions, relative to H-His-Ala-Lys-Arg-Arg-Leu-Ile-Phe-NH2 (=1)
[6] = Ile158 substitutions, relative to H-His-Ala-Lys-Arg-Arg-Leu-Ile-Phe-NH2 (=1)
[7] = Arg156 substitutions, relative to H-His-Ala-Lys-Arg-Arg-Leu-Ile-Phe-NH2 (=1)
[8] = Ala153 substitutions, relative to H-His-Ala-Lys-Arg-Arg-Leu-Ile-Phe-NH2 (=1)

Chain of Cyclin A (P20248 whole entry): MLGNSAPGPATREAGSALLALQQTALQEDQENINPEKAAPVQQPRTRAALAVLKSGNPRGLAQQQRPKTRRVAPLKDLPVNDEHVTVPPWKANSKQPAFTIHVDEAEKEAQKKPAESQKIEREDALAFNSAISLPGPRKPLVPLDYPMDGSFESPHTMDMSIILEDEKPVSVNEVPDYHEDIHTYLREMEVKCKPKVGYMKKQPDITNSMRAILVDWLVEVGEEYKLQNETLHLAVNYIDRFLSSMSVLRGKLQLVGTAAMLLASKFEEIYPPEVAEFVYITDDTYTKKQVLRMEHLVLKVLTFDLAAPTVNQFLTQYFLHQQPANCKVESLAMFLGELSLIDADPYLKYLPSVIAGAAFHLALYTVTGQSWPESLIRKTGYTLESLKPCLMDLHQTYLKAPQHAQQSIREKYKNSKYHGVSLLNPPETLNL
T1 sequence (P24385 whole entry): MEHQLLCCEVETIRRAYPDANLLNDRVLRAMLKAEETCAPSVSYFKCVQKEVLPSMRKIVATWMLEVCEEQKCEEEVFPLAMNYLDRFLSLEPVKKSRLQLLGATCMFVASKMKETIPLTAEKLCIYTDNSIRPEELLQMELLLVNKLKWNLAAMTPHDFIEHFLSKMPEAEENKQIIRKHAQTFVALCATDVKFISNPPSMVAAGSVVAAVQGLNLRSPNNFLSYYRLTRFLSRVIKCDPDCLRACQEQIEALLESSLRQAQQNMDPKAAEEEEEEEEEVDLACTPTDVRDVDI
T1 sequence (P11802 whole entry partner): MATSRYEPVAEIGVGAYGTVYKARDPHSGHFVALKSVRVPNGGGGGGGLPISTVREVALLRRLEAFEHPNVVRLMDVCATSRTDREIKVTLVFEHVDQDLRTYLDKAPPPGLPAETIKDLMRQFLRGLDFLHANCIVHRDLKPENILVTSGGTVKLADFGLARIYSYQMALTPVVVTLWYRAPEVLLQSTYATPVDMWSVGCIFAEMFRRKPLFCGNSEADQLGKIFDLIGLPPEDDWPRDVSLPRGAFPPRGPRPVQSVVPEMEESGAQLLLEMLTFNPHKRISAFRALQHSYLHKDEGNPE

CC[C@H](C)[C@H](NC(=O)[C@H](CC(C)C)NC(=O)[C@H](CCCNC(=N)N)NC(=O)[C@H](CCCNC(=N)N)NC(=O)[C@H](CCCCN)NC(=O)[C@H](CO)NC(=O)[C@@H](N)Cc1c[nH]cn1)C(=O)N[C@@H](Cc1ccccc1)C(N)=O
inhibition at 100 µM (CDK4/Cyclin D1; [1]): 72% | IC50 (CDK4/Cyclin D1; phosphorylation of pRb, read-out: Kinase Inhibition Cyclin D1/CDK4 IC50): 21 µM | IC50 (CDK2/Cyclin E; phosphorylation of pRb, read-out: Kinase Inhibition Cyclin E/CDK2 IC50): 3.4 µM | Kinase Inhibition Cyclin A/CDK2 % Inhibition (CDK2/cyclin A; phosphorylation of pRb): 80% | IC50 (CDK2/cyclin A; phosphorylation of pRb, read-out: Kinase Inhibition Cyclin A/CDK2 IC50): 3.4 µM

24 (FYHSKRRLIFS) [compound 24]
Cyclin A Binding Maximum Inhibition (Cyclin A): 50(at 100 (μM) %

30 (SKRRLIF) [compound 30]
Cyclin A Binding Maximum Inhibition (Cyclin A): 20(at 100 (μM) %

110 (H-HAKRRLI[Pse]-OH) [compound 110]
Relative activity Kinase Inhibition (CDK2/cyclin A; [2]): <0.1 | Relative activity Cyclin A Binding (Cyclin A; [3]): 0.2

111 (H-HAKRRLI[dPse]-OH; reading uncertain) [compound 111]
Relative activity Kinase Inhibition (CDK2/cyclin A; [2]): <0.1 | Relative activity Cyclin A Binding (Cyclin A; [3]): 0.1

112 (H-HSKRRLI[Pse]-OH) [compound 112]
Relative activity Kinase Inhibition (CDK2/cyclin A; [2]): <0.1 | Relative activity Cyclin A Binding (Cyclin A; [3]): <0.1

113 (H-HSKRRLI[dPse]-OH; reading uncertain) [compound 113]
Relative activity Kinase Inhibition (CDK2/cyclin A; [2]): <0.1 | Relative activity Cyclin A Binding (Cyclin A; [3]): <0.1

118 (H-HAKRRLI[Dhp]-OH; not fully specified) [compound 118]
Relative activity Kinase Inhibition (CDK2/cyclin A; [2]): 3.3 | Relative activity Cyclin A Binding (Cyclin A; [3]): 0.2

120 (H-HAKRRLI[Phe(ol)]) [compound 120]
Relative activity Kinase Inhibition (CDK2/cyclin A; [2]): 0.6 | Relative activity Cyclin A Binding (Cyclin A; [3]): 1.0

CC(=O)N[C@@H](CCCN=C(N)N)C(=O)N[C@@H](CCCN=C(N)N)C(=O)N[C@@H](CC(C)C)C(=O)N[C@@H](CC(N)=O)C(=O)N[C@@H](Cc1ccccc1)C(N)=O [compound 378]
IC50 (CDK2/cyclin A): 37.2 µM | IC50 (Cyclin A): 8.15 µM

H-Ala-Ala-Lys-Arg-Arg-Leu-Ile Phe-NH2 (H-AAKRRLIF-NH2)
Relative activity Kinase Inhibition (CDK2/cyclin A; [4]): 1.8 | Relative activity Cyclin A Binding (Cyclin A; [4]): 2.5

H-Dab-Ala-Lys-Arg-Arg-Leu-Ile Phe-NH2 (XAKRRLIF; N-terminal Dab, C-terminal amide)
Relative activity Kinase Inhibition (CDK2/cyclin A; [4]): 5 | Relative activity Cyclin A Binding (Cyclin A; [4]): 0.4

H-His Ala-Lys-Arg-Arg-Ile-Ile Phe-NH2 (H-HAKRRIIF-NH2)
Relative activity Kinase Inhibition (CDK2/cyclin A; [5]): 1.5 | Relative activity Cyclin A Binding (Cyclin A; [5]): 0.2

H-His Ala-Lys-Arg-Arg-Leu-Val-Phe-NH2 (H-HAKRRLVF-NH2)
Relative activity Kinase Inhibition (CDK2/cyclin A; [6]): 0.8 | Relative activity Cyclin A Binding (Cyclin A; [6]): 1.5

H-His Ala-Lys-Arg-Pro-Leu-Ile Phe-NH2 (H-HAKRPLIF-NH2)
Relative activity Kinase Inhibition (CDK2/cyclin A; [7]): <0.1 | Relative activity Cyclin A Binding (Cyclin A; [7]): <0.1

H-His-Abu-Lys-Arg-Arg-Leu-Ile Phe-NH2 (H-H[Abu]KRRLIF-NH2; SMILES CC[C@H](NC(=O)[C@@H](N)Cc1c[nH]cn1)C(=O)N[C@@H](CCCCN)C(=O)N[C@@H](CCCNC(=N)N)C(=O)N[C@@H](CCCNC(=N)N)C(=O)N[C@@H](CC(C)C)C(=O)N[C@H](C(=O)N[C@@H](Cc1ccccc1)C(N)=O)[C@@H](C)CC)
Relative activity Kinase Inhibition (CDK2/cyclin A; [8]): 5 | Relative activity Cyclin A Binding (Cyclin A; [8]): 1.3

YHSKRRL
Kinase Inhibition Cyclin D1/CDK4 % Inhibition (CDK4/Cyclin D1; [1]): 10% | Kinase Inhibition Cyclin E/CDK2 % Inhibition (CDK2/Cyclin E): 30% | Kinase Inhibition Cyclin E/CDK2 IC30 (CDK2/Cyclin E): >200 µM

YHSKRRLI
Kinase Inhibition Cyclin D1/CDK4 % Inhibition (CDK4/Cyclin D1; [1]): 15% | Kinase Inhibition Cyclin E/CDK2 % Inhibition (CDK2/Cyclin E): 45% | Kinase Inhibition Cyclin E/CDK2 IC30 (CDK2/Cyclin E): >200 µM

YHSKRRLIF
Kinase Inhibition Cyclin D1/CDK4 % Inhibition (CDK4/Cyclin D1; [1]): 70% | Kinase Inhibition Cyclin D1/CDK4 IC30 (CDK4/Cyclin D1; [1]): 16 ± 1 µM | Kinase Inhibition Cyclin E/CDK2 % Inhibition (CDK2/Cyclin E): 80% | Kinase Inhibition Cyclin E/CDK2 IC30 (CDK2/Cyclin E): 7 ± 2 µM

YHSKRRLIFS
Kinase Inhibition Cyclin D1/CDK4 % Inhibition (CDK4/Cyclin D1; [1]): 70% | Kinase Inhibition Cyclin D1/CDK4 IC30 (CDK4/Cyclin D1; [1]): 20 ± 1 µM | Kinase Inhibition Cyclin E/CDK2 % Inhibition (CDK2/Cyclin E): 80% | Kinase Inhibition Cyclin E/CDK2 IC30 (CDK2/Cyclin E): 7.3 ± 0.8 µM

YHSKRRLIFSKR
Kinase Inhibition Cyclin D1/CDK4 % Inhibition (CDK4/Cyclin D1; [1]): 60% | Kinase Inhibition Cyclin D1/CDK4 IC30 (CDK4/Cyclin D1; [1]): 45 ± 10 µM | Kinase Inhibition Cyclin E/CDK2 % Inhibition (CDK2/Cyclin E): 80%
